Laboratory results published in US20230002480A1.

Experiments:
Assay in all cases: cell-based or functional assay
[1] = target: HIV-1 Env pseudovirus 263-8 (HIV-1)
[2] = target: HIV-1 Env pseudovirus 3016.v5.c45 (HIV-1)
[3] = target: HIV-1 Env pseudovirus 3365.v2.c2 (HIV-1)
[4] = target: HIV-1 Env pseudovirus 3415.v1.c1 (HIV-1)
[5] = target: HIV-1 Env pseudovirus 6811.v7.c18 (HIV-1)
[6] = target: HIV-1 Env pseudovirus 6952.v1.c20 (HIV-1)
[7] = target: HIV-1 Env pseudovirus 928-28 (HIV-1)
[8] = target: HIV-1 Env pseudovirus C2101.c01 (HIV-1)
[9] = target: HIV-1 Env pseudovirus R1166.c01 (HIV-1)
[10] = target: HIV-1 Env pseudovirus X1254_c3 (HIV-1)
[11] = target: HIV-1 Env pseudovirus X2131_C1_B5 (HIV-1)
[12] = target: HIV-1 Env of pseudovirus 1054_07_TC4_1499 (clade B (T/F)) (HIV-1)
[13] = target: HIV-1 Env of pseudovirus 62357_14_D3_4589 (clade B (T/F)) (HIV-1)
[14] = target: HIV-1 Env of pseudovirus 6535.3 (clade B) (HIV-1)
[15] = target: HIV-1 Env of pseudovirus CNE30 (clade BC) (HIV-1)
[16] = target: HIV-1 Env of pseudovirus Ce0393_C3 (clade C (T/F)) (HIV-1)
[17] = target: HIV-1 Env of pseudovirus Ce1176_A3 (clade C (T/F)) (HIV-1)
[18] = target: HIV-1 Env of pseudovirus HIV-16845-2.22 (clade C) (HIV-1)
[19] = target: HIV-1 Env of pseudovirus Q23.17 (clade A) (HIV-1)
[20] = target: HIV-1 Env of pseudovirus Q842.d12 (clade A) (HIV-1)
[21] = target: HIV-1 Env of pseudovirus SC422661.8 (clade B) (HIV-1)
[22] = target: HIV-1 Env of pseudovirus TRJO4551.58 (clade B) (HIV-1)
[23] = target: HIV-1 Env of pseudovirus TRO.11 (clade B) (HIV-1)
[24] = target: HIV-1 Env of pseudovirus ZM214M.PL15 (clade C) (HIV-1)
[25] = target: HIV-1 Env of pseudovirus ZM249M.PL1 (clade C) (HIV-1)

With N49P9.1 (antibody) the IC50 [1] was 0.049 µg/mL, the IC80 [1] was 0.17 µg/mL and the MPI [1] was 100. For the same substance, the IC50 [2] was 0.076 µg/mL, the IC80 [2] was 0.223 µg/mL and the MPI [2] was 100. It also gave an IC50 [3] of 0.055 µg/mL, an IC80 [3] of 0.725 µg/mL and an MPI [3] of 100. It also gave an IC50 [4] of 0.21 µg/mL, an IC80 [4] of 1.37 µg/mL and an MPI [4] of 100. It also gave an IC50 [5] of 0.398 µg/mL, an IC80 [5] of 1.76 µg/mL and an MPI [5] of 97. It also gave an IC50 [6] of 0.119 µg/mL, an IC80 [6] of 0.389 µg/mL and an MPI [6] of 100. For the same substance, the IC50 [7] was 0.163 µg/mL, the IC80 [7] was 0.695 µg/mL and the MPI [7] was 100. It also gave an IC50 [8] of 0.085 µg/mL, an IC80 [8] of 0.227 µg/mL and an MPI [8] of 100. The IC50 [9] was 0.073 µg/mL, the IC80 [9] was 0.232 µg/mL and the MPI [9] was 100. It also gave an IC50 [10] of 0.101 µg/mL, an IC80 [10] of 0.278 µg/mL and an MPI [10] of 100. It also gave an IC50 [11] of 0.143 µg/mL, an IC80 [11] of 0.476 µg/mL and an MPI [11] of 100.
For N49P19 (antibody), the IC50 [1] was 0.344 µg/mL, the IC80 [1] was 1.51 µg/mL and the MPI [1] was 99. The IC50 [2] was greater than 50 µg/mL, the IC80 [2] was greater than 50 µg/mL and the MPI [2] was 9. It also gave an IC50 [3] of 0.579 µg/mL, an IC80 [3] of 2.09 µg/mL and an MPI [3] of 99. For the same substance, the IC50 [4] was 0.462 µg/mL, the IC80 [4] was 2.04 µg/mL and the MPI [4] was 100. It also gave an IC50 [5] of 1.3 µg/mL, an IC80 [5] of 4.71 µg/mL and an MPI [5] of 97. It also gave an IC50 [6] greater than 50 µg/mL, an IC80 [6] greater than 50 µg/mL and an MPI [6] of 0. It also gave an IC50 [7] of 2.73 µg/mL, an IC80 [7] of 9.63 µg/mL and an MPI [7] of 97. It also gave an IC50 [8] of 0.978 µg/mL, an IC80 [8] of 4.19 µg/mL and an MPI [8] of 100. For the same substance, the IC50 [9] was 0.629 µg/mL, the IC80 [9] was 2.69 µg/mL and the MPI [9] was 100. The IC50 [10] was greater than 50 µg/mL, the IC80 [10] was greater than 50 µg/mL and the MPI [10] was 48. It also gave an IC50 [11] of 2.52 µg/mL, an IC80 [11] of 14.4 µg/mL and an MPI [11] of 91.
Substance N49P9 (antibody) has an IC50 [1] of 0.032 µg/mL, an IC80 [1] of 0.161 µg/mL and an MPI [1] of 100. It also gave an IC50 [2] of 0.06 µg/mL, an IC80 [2] of 0.209 µg/mL and an MPI [2] of 100. For the same substance, the IC50 [3] was 0.059 µg/mL, the IC80 [3] was 0.198 µg/mL and the MPI [3] was 100. For the same substance, the IC50 [4] was 0.137 µg/mL, the IC80 [4] was 0.502 µg/mL and the MPI [4] was 100. The IC50 [5] was 0.249 µg/mL, the IC80 [5] was 1.2 µg/mL and the MPI [5] was 99. For the same substance, the IC50 [6] was 0.095 µg/mL, the IC80 [6] was 0.258 µg/mL and the MPI [6] was 100. It also gave an IC50 [7] of 0.094 µg/mL, an IC80 [7] of 0.339 µg/mL and an MPI [7] of 100. The IC50 [8] was 0.051 µg/mL, the IC80 [8] was 0.209 µg/mL and the MPI [8] was 100. For the same substance, the IC50 [9] was 0.064 µg/mL, the IC80 [9] was 0.223 µg/mL and the MPI [9] was 100. It also gave an IC50 [10] of 0.04 µg/mL, an IC80 [10] of 0.104 µg/mL and an MPI [10] of 100. It also gave an IC50 [11] of 0.082 µg/mL, an IC80 [11] of 0.274 µg/mL and an MPI [11] of 100.
Substance N49P7.2 (antibody) has an IC50 [12] of 2.04 µg/mL, an IC80 [12] of 10.7 µg/mL and an MPI [12] of 99. For the same substance, the IC50 [13] was 0.03 µg/mL, the IC80 [13] was 0.121 µg/mL and the MPI [13] was 100. It also gave an IC50 [14] of 0.152 µg/mL, an IC80 [14] of 0.784 µg/mL and an MPI [14] of 100. For the same substance, the IC50 [15] was 0.362 µg/mL, the IC80 [15] was 1.2 µg/mL and the MPI [15] was 100. For the same substance, the IC50 [16] was 0.137 µg/mL, the IC80 [16] was 0.368 µg/mL and the MPI [16] was 100. The IC50 [17] was 0.332 µg/mL, the IC80 [17] was 1.08 µg/mL and the MPI [17] was 100. For the same substance, the IC50 [18] was 3.91 µg/mL, the IC80 [18] was 18.2 µg/mL and the MPI [18] was 98. It also gave an IC50 [19] of 0.051 µg/mL, an IC80 [19] of 0.2 µg/mL and an MPI [19] of 100. The IC50 [20] was 0.045 µg/mL, the IC80 [20] was 0.2 µg/mL and the MPI [20] was 100. For the same substance, the IC50 [21] was 0.119 µg/mL, the IC80 [21] was 0.564 µg/mL and the MPI [21] was 100. The IC50 [22] was 0.21 µg/mL, the IC80 [22] was 0.673 µg/mL and the MPI [22] was 100. The IC50 [23] was 0.113 µg/mL, the IC80 [23] was 0.306 µg/mL and the MPI [23] was 100. The IC50 [24] was 0.559 µg/mL, the IC80 [24] was 4.53 µg/mL and the MPI [24] was 100. For the same substance, the IC50 [25] was 0.073 µg/mL, the IC80 [25] was 0.256 µg/mL and the MPI [25] was 100.
N49P18.1 (antibody) showed an IC50 [12] greater than 50 µg/mL, an IC80 [12] greater than 50 µg/mL and an MPI [12] of 0. The IC50 [13] was 10.4 µg/mL, the IC80 [13] was 48 µg/mL and the MPI [13] was 82. The IC50 [14] was 2.06 µg/mL, the IC80 [14] was 11.4 µg/mL and the MPI [14] was 100. For the same substance, the IC50 [15] was 13.1 µg/mL, the IC80 [15] was 32.2 µg/mL and the MPI [15] was 93. The IC50 [16] was 10.3 µg/mL, the IC80 [16] was 24.8 µg/mL and the MPI [16] was 92. For the same substance, the IC50 [17] was 32.5 µg/mL, the IC80 [17] was greater than 50 µg/mL and the MPI [17] was 61. It also gave an IC50 [18] greater than 50 µg/mL, an IC80 [18] greater than 50 µg/mL and an MPI [18] of 23. The IC50 [19] was 1.16 µg/mL, the IC80 [19] was 6.93 µg/mL and the MPI [19] was 100. The IC50 [20] was 3.04 µg/mL, the IC80 [20] was 8.13 µg/mL and the MPI [20] was 100. For the same substance, the IC50 [21] was 14.1 µg/mL, the IC80 [21] was 43.4 µg/mL and the MPI [21] was 84. For the same substance, the IC50 [22] was 4.44 µg/mL, the IC80 [22] was 14.7 µg/mL and the MPI [22] was 99. The IC50 [23] was 4.25 µg/mL, the IC80 [23] was 11.7 µg/mL and the MPI [23] was 99. It also gave an IC50 [24] greater than 50 µg/mL, an IC80 [24] greater than 50 µg/mL and an MPI [24] of 20. For the same substance, the IC50 [25] was 4.16 µg/mL, the IC80 [25] was 19.8 µg/mL and the MPI [25] was 98.
